PMC4790104 (Analytical chemistry, 2016)

Target: T1, Ski2 (S. cerevisiae (endogenous in budding …, UniProt P35207 1-1287))
T1 sequence (looked up): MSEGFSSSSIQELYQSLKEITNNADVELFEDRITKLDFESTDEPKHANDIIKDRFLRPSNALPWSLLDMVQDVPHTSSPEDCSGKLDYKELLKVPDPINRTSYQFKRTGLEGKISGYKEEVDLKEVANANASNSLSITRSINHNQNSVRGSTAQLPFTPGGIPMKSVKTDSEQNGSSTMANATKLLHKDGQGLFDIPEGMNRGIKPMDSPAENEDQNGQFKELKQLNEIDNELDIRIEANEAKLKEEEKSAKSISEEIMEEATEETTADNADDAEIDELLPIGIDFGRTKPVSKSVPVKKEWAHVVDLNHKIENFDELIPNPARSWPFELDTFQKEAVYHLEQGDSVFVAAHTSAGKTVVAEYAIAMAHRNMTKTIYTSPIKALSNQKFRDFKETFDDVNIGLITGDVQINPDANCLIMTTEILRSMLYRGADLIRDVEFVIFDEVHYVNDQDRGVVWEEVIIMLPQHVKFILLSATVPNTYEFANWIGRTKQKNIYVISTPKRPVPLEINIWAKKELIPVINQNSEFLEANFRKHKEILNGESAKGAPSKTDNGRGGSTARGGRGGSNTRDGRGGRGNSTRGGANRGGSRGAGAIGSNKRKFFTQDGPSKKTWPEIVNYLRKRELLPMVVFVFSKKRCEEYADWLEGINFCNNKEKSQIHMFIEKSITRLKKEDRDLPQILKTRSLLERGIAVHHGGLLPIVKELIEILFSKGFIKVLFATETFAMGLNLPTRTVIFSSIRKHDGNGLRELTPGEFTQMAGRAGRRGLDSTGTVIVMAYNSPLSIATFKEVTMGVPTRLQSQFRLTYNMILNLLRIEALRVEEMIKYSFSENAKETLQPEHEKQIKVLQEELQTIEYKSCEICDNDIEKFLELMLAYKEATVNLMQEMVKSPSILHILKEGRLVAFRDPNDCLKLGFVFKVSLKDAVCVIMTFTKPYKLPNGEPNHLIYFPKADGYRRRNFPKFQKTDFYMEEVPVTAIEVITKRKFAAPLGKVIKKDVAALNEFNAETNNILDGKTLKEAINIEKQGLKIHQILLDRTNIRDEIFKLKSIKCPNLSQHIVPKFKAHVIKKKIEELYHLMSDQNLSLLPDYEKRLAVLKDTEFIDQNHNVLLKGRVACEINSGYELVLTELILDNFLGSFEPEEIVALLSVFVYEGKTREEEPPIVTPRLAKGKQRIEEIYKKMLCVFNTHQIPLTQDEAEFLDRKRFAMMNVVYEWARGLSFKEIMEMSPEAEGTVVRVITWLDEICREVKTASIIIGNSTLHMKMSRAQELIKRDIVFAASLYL
Experiment: native MS

B1: Ski3 (natural protein, UniProt P17883 1-1432, looked up)
chain: MSDIKQLLKEAKQELTNRDYEETIEISEKVLKLDPDNYFAHIFLGKALSSLPASNNVSSNRNLERATNHYVSAAKLVPDNLLAWKGLFLLFRTTEVVPDILSYDEYFDLCGQYADALLKQEQSQVELINDIKLLKKTHPDCQKAFYQHLKPGSLMAETIGRHLSTPQDALLNLIKILSNIETTEIGKTLSQNRLKLKASDPDYQIKLNSFSWEIIKNSEIDQLYNQLVNILADDQKRSEIENQWLEYRIKVLKSMPLDVKKDFFTKVKEMVEDMVLVNHQSLLAWQKYFEWTDYEDLDNMDAPLIIKYFKKFPKDPLAMILYSWLSSKLSKYDIKSLESANKPPEGHKKTEKETDIKDVDETNEDEVKDRVEDEVKDRVEDEVKDQDEEAKEDEEEDLDDIEIGLLEEEVVTVLTENIVKCKNNILAHRILCQYYLLTKEYEAALPYIKNGISLIAYNIKDLGVHLPLTKREFSLDLATVYTYVDAPKDHNAALKLYDNILSGDFSNIQAKMGKGIIFIERKNWKDAMTLLTQVHEQSPNNLEVLSELSWSKAHMGYMDEALAGLDTVIKGIKGMDLRSIDFRALNLWRQAKVYIMKHASINDAKQENVKCAFKLLIQSIKILDTFAPGFSTLGDIYCHYYKDHLRAFKCYFKAFDLDAGDYTAAKYITETYASKPNWQAASSIASRLIKGEKAKAELRSNNWPFRVVGIAHLEKQEESDSIEWFQSALRVDPNDVESWVGLGQAYHACGRIEASIKVFDKAIQLRPSHTFAQYFKAISLCDVGEYLESLDILEKVCQEAATEESFQIGLVEVLMRCSLDLYSQGFLLKSVSIAKDTIERIKIIISELKCENQQVWIYLSQVLRLFIWIESKVDTLPVESLVSIFENSQFSGSEEIDSVDNIKIDTLLDSTTDDNVSIACKFLILASKYSVSDQKFTDIAGTVRASYWYNIGISELTAFITLKEPQYRDAAIFAFKKSIQLQSNTSETWIGLGIATMDINFRVSQHCFIKATALEPKATNTWFNLAMLGLKKKDTEFAQQVLNKLQSLAPQDSSPWLGMALILEEQGDIIGSSKLFAHSFILSNGRSKAAQFMYAKNVLENHINNGDDERDIETVEKLTTASIALEQFFKKSPDSQFALQCALLTLERLHHYENANELANRLIGILEKKFEKTQDERELFNFAIIKGQFARIHLGLGNFELSIENADLSQGIISESSDEKSMKTKISNHICLGLSYFFLNDFDQTLNQFQELLSISKDSKHLVVLIAKVLYDVGESDTKEIALQELTEYIATSGADLLVTLTIAAMSILDDKREDLSIILEELKALPLSKQIIDKHKDAPYLIEEITKRLYRNDTGKQVWQRSAYFFPNNLKVWERLDKNIQRRIASNGQNKVTAEEMSKLYCESKNLRSIQRGMFLCPWNVTAVKALNECF
B1 was tested, and the “stoichiometry N” value was 1.
